The data set concerns the molecule itself. The experiment in a line: cryo-EM structure; amyloid fibrils formed at 30 uM protein in 20 mM sodium acetate pH 4.0, 37 °C with rotation, four rounds of sequential seeding (10% w/w sonicated fibrils); helical reconstruction of twisted fibrils, 3.2 Å.

B1: TDP-43 low complexity domain (transactive response DNA-binding protein of 43 kDa, C-terminal low-complexity domain) (domain or fragment, UniProt Q13148 267-414, looked up)
chain: NRQLERSGRFGGNPGGFGNQGGFGNSRGGGAGLGNNQGSNMGGGMNFGAFSINPAMMAAAQAALQSSWGMMGMLASQQNQSGPSGNNQNQGNMQREPNQAFGSGNNSYSGSNSGAAIGWGSASNAGSGSGFNGGFGSSMDSKSSGWGM
notes: TDP-43, entire C-terminal low-complexity domain; Wild-type, non-phosphorylated; The assayed form is an amyloid fibril: a single protofilament of stacked subunits with an ordered core of residues 276-414; Five chains were built in the model; also called TDP-43 LCD; LCD; source: Rosetta (DE3) pLysS cells, purified (Ni-NTA in 8 M urea, HPLC on a C4 column), lyophilized
On to B1, for which the binding result is on record as “binds”.

Source of the values: publication PMC7955110, “Cryo-EM structure of amyloid fibrils formed by the entire low complexity domain of TDP-43” (Nature Communications, 2021).
